Reference: publication doi:10.1101/2024.05.08.592267, “Origins and diversity of pan-isotype human bone marrow plasma cells” (bioRxiv, 2024)

Target: T1, biotinylated natural Ara h 2 (Arachis hypogaea (peanut), natural …, UniProt Q6PSU2, biotin (position not given))
T1 construct: Ara h 2, peanut allergen, 'natural' (not recombinant) protein; Natural Ara h 2 from peanut may be a mixture of isoforms; also called Biotin Natural Ara h 2; source: bought: InBio (biotinylated natural Ara h 2)
Assay: BLI; in-tandem epitope binning; biotinylated natural Ara h 2 loaded on streptavidin sensors; primary mAbs 10 ug/mL, secondary mAbs 5 ug/mL in kinetics buffer (Dulbecco's PBS, 1% BSA, 0.02% Tween-20); Octet R2
Conditions: both partners purified

T1 sequence (Q6PSU2 whole entry, looked up, canonical isoform): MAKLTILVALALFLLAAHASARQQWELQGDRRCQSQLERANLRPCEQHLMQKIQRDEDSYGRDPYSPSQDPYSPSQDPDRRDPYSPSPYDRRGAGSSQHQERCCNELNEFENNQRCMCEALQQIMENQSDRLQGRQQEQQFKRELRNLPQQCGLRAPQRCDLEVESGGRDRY

binding result: binds
B1: 13T5 (monoclonal Ara h 2 specific antibody, Epitope 2) (antibody, V domains shown)
VH: QVQLQESGPGLVKPSETLSLTCTVSGGSMSSYYWGWIRQPAGRGLEWIGRIFTTGSTIYNASLNSRVSMSVDTSKNQFSLKLTSVTAADTALYFCVRDRRGRSHDSNWYWYFDLWGRGTLVTVSS
VL: DIVMTQSPSSLSASVGDRVIITCRTSQTLSRNLNWYQQKPGEAPKLLIYGASTLQSGVPSRFTGSGSGTDFTLIISSLQPEDFATYYCQQSDNTPRTFGQGTKVEIK
